Molecular target: T1, hPus1 (79-408) (Homo sapiens, UniProt Q9Y606 79-408)
T1 sequence: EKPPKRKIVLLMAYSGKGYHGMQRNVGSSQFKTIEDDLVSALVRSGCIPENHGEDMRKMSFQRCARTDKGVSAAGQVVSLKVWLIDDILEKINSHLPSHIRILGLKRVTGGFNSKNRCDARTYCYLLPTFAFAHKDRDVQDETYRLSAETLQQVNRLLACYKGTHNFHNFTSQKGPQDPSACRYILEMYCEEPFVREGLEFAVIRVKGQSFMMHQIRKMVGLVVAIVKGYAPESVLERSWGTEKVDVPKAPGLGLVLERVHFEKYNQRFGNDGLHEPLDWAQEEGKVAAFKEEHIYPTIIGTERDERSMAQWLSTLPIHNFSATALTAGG
Experiment: size exclusion chromatography

## GAUGGACUUGAAAUCCAUUGGCGCAGGUUCGAAUCCUGC (structured_RNA) [minimal tRNASer (nt 26-65), unlabeled]
  binding result: binds

— PMC3900414
